Experimental data: publication PMC3814001

Legend:
[1] = molecular target: PKA holoenzyme (PKA_(holo)) formed by wild-type RIIα and PKAc (mouse) (UniProt P12367); assay: native gel or EMSA; SEC peak fraction on precast 3–8% Tris-Acetate native gels, 50 mM Tris pH 8.3, 50 mM Tricine, silver staining
[2] = molecular target: AKAP18γ–GFP (human)
[3] = molecular target: AKAP18γ (human γ isoform of AKAP18), strep-II and 6xHis tagged (human)
[4] = molecular target: RIIα (type IIα regulatory subunit of PKA), wild type, RIIα-6xHis (mouse) (UniProt P12367); assay: native gel or EMSA; SEC peak fraction on precast 3–8% Tris-Acetate native gels, 50 mM Tris pH 8.3, 50 mM Tricine, silver staining

Chain of AKAP18γ–GFP (human) (Q9P0M2 whole entry, canonical isoform): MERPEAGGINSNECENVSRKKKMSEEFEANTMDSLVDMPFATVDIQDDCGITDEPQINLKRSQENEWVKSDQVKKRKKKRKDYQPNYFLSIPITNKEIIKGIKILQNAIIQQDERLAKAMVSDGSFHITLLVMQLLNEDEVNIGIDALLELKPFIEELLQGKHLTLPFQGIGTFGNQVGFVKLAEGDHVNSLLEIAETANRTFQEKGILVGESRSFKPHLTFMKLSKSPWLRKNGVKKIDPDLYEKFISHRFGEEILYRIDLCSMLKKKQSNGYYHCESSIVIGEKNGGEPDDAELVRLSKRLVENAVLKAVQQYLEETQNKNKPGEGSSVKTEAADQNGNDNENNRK

AKAP18γ (human γ isoform of AKAP18), strep-II and 6xHis tagged (natural protein)
stoichiometry N (AKAP18γ per RIIα dimer with two PKAc) [1]: 1

PDE4D (type 4 phosphodiesterase isoforms PDE4D3 / PDE4D5) (enzyme)
cAMP phosphodiesterase activity in anti-GFP immune complexes from HEK293 cells, fold over GFP controls or rolipram-treated samples [2]: 3.27 fold | basal (cAMP-independent) 32P incorporation into PDE4D by PKA holoenzyme with against without AKAP18γ, autoradiography; the substrate here was purified MBP-PDE4D3 [3]: 1.87 fold

RIIα (type IIα regulatory subunit of PKA), wild type, RIIα-6xHis (from UniProt P12367 1-401) (natural protein; other documents disagree on this pair)
stoichiometry N [4]: 2 subunits
